Source: paper PMC10855146, “Secondary Modification of S100B Influences Anti Amyloid-β Aggregation Activity and Alzheimer’s Disease Pathology” (International Journal of Molecular Sciences, 2024)

Assays:
[1] = molecular target: the molecule itself; assay: SEC; analytical size-exclusion chromatography, Superdex 75 Tricorn, room temperature, 1 mL/min, 50 mM TrisHCl pH 7.4, imidazole as internal standard
[2] = molecular target: Human recombinant amyloid beta 42 (human, UniProt P05067 672-713); assay: cell-based or functional assay
Chain of Human recombinant amyloid beta 42 (P05067 672-713): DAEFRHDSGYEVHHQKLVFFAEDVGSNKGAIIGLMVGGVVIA

half-time of ThT-monitored aggregation of monomeric Aβ42 (5 μM) with a 10-fold excess of S100B (0.9 h for Aβ42 alone) [2] [h]	blocking of Aβ42 fibril elongation in seeded ThT aggregation assays (5 μM Aβ42, 4-fold excess of S100Box, 0.04 µM pre-formed fibrils), against S100B [2] [fold against S100B]	half-time of ThT-monitored aggregation of monomeric Aβ42 (5 μM) with a 10-fold excess of S100Box (0.9 h for Aβ42 alone) [2] [h]	Binder	stoichiometry N [1]
4.5	–	–	Human S100B (natural protein, UniProt P04271 1-92, looked up, S100B, human, recombinant; also called non-oxidized S100B; unmodified S100B; source: apo form eluted on Superdex S75) MSELEKAMVALIDVFHQYSGREGDKHKLKKSELKELINNELSHFLEEIKEQEVVDKVMETLDNDGDGECDFQEFMAFVAMVTTACHEFFEHE	2
–	~3	8.5	Oxidized S100B (HClO-treated recombinant human S100B) (natural protein, UniProt P04271 1-92, looked up, up to three methionine sulfoxide residues per S100Box monomer (positions not given); no Cys oxidation, S100B, human, recombinant, oxidized with HClO; also called S100Box; S100ox) MSELEKAMVALIDVFHQYSGREGDKHKLKKSELKELINNELSHFLEEIKEQEVVDKVMETLDNDGDGECDFQEFMAFVAMVTTACHEFFEHE	2
